What all share (conditions): both partners purified
Assay [1] concerns the target T1, beta-R262A microtubules of recombinant human TUBA1B (K40R) and TUBB3 R262A tubulin (human, UniProt P68363-1 1-451; Q13509-1 1-450, K40R | R262A).
T1 construct: beta3-tubulin TUBB3, Homo sapiens, NP_006077, with R262A; Polymer of alpha/beta heterodimers, taxol-stabilised; Each tag is joined through a GGSGG linker; also called β-R262A; R262A MT; source: HighFive insect cells (baculovirus), purified (DEAE Sepharose, TALON, anti-FLAG resin), polymerized with taxol
Kind of assay: co-sedimentation; ADP state: 0.1 µM BG-549-labelled HK349 with varying concentrations of MTs; x2 MA buffer, 1 mg/ml casein, 40 µM taxol, 1 mM ADP and 1 U/ml hexokinase; fraction of HK349 in the MT pellet against total MT concentration fitted to a hyperbola.

The target of assay [2] is T2, WT microtubules of recombinant human TUBA1B (K40R, treated as WT) and TUBB3 tubulin (human, UniProt P68363-1 1-451; Q13509-1 1-450, K40R).
T2 construct: beta3-tubulin TUBB3, Homo sapiens, NP_006077; Polymer of alpha/beta heterodimers, taxol-stabilised; Each tag is joined through a GGSGG linker; also called WT MT; WT MTs; source: HighFive insect cells (baculovirus), purified (DEAE Sepharose, TALON, anti-FLAG resin), polymerized with taxol
The description is as above.

Assay [3] has as its target T1, beta-R262A microtubules of recombinant …. The assay can be described thus: co-sedimentation; nucleotide-free state: 0.1 µM BG-549-labelled HK349 with varying concentrations of MTs; x2 MA buffer, 1 mg/ml casein, 40 µM taxol, 1 U/ml apyrase; fraction of HK349 in the MT pellet against total MT concentration fitted to a hyperbola.
Assay [4] addresses T2, WT microtubules of recombinant human …. Described as above.
For assay [5], the target named is T1, beta-R262A microtubules of recombinant …. Kind of assay: co-sedimentation; AMPPNP state: 0.1 µM BG-549-labelled HK349 with varying concentrations of MTs; x2 MA buffer, 1 mg/ml casein, 40 µM taxol, 1 mM AMPPNP and 1 U/ml apyrase; fraction of HK349 in the MT pellet against total MT concentration fitted to a hyperbola.
Assay [6] deals with T2, WT microtubules of recombinant human …. The description is as above.

T1 sequence (P68363 whole entry K40R, chain 1 of 2): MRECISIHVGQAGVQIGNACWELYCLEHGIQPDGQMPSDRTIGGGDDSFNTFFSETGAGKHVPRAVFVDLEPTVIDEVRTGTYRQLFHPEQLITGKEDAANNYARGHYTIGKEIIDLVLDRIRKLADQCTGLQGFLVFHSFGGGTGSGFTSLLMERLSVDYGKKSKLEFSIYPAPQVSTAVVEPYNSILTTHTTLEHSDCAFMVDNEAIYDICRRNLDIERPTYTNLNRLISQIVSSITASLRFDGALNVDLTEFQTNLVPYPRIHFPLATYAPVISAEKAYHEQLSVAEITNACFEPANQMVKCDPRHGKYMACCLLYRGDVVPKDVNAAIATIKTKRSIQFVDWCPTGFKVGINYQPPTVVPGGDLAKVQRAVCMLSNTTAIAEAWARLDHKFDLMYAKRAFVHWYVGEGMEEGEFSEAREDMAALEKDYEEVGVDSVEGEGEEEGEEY
T1 sequence (Q13509 whole entry R262A, chain 2 of 2): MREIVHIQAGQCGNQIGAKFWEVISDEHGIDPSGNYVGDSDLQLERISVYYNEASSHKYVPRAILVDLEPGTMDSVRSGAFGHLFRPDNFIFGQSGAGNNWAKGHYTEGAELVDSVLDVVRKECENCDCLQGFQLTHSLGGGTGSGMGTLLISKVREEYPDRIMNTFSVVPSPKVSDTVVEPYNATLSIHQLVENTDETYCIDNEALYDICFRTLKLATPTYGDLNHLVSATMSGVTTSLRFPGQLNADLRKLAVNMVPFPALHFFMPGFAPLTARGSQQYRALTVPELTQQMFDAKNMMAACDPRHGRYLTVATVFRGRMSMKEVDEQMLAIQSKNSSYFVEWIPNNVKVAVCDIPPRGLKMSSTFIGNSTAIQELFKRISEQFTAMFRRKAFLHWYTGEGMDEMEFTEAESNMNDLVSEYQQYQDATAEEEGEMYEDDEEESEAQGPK
T2 sequence (P68363 whole entry K40R, chain 1 of 2): as the sequence (P68363 whole entry K40R, chain 1 of 2) above
T2 sequence (Q13509 whole entry, chain 2 of 2): as the sequence (Q13509 whole entry R262A, chain 2 of 2) above, with A262R counted along it

B1: WT KIF5B, single-headed (monomeric) construct HK349 (K349-SNAP-His) (domain or fragment, human, UniProt P33176 1-349, looked up)
chain: MADLAECNIKVMCRFRPLNESEVNRGDKYIAKFQGEDTVVIASKPYAFDRVFQSSTSQEQVYNDCAKKIVKDVLEGYNGTIFAYGQTSSGKTHTMEGKLHDPEGMGIIPRIVQDIFNYIYSMDENLEFHIKVSYFEIYLDKIRDLLDVSKTNLSVHEDKNRVPYVKGCTERFVCSPDEVMDTIDEGKSNRHVAVTNMNEHSSRSHSIFLINVKQENTQTEQKLSGKLYLVDLAGSEKVSKTGAEGAVLDEAKNINKSLSALGNVISALAEGSTYVPYRDSKMTRILQDSLGGNCRTTIVICCSPSSYNESETKSTLLFGQRAKTIKNTVCVNVELTAEQWKKKYEKEKE
modifications: fluorescent dye BG-549 (SNAP-surface 549) on the SNAP tag
notes: kinesin heavy chain KIF5B, human, residues 1-349; also called minimal motor; not shown: SNAP tag, C-terminal, kept
B1: the Kd (as a rule, the free concentration of one partner at which half of the binding sites on the other are occupied at equilibrium, for simple one-to-one binding) in assay [1] is 36000 nM; in assay [2] it was 6500 nM; in assay [3] it was 860 nM; in assay [4], 12 nM; in assay [5] it was 2500 nM; in assay [6], 29 nM.

B2: D279R KIF5B, single-headed (monomeric) construct HK349 (domain or fragment, human, UniProt P33176 1-349, looked up)
chain: MADLAECNIKVMCRFRPLNESEVNRGDKYIAKFQGEDTVVIASKPYAFDRVFQSSTSQEQVYNDCAKKIVKDVLEGYNGTIFAYGQTSSGKTHTMEGKLHDPEGMGIIPRIVQDIFNYIYSMDENLEFHIKVSYFEIYLDKIRDLLDVSKTNLSVHEDKNRVPYVKGCTERFVCSPDEVMDTIDEGKSNRHVAVTNMNEHSSRSHSIFLINVKQENTQTEQKLSGKLYLVDLAGSEKVSKTGAEGAVLDEAKNINKSLSALGNVISALAEGSTYVPYRRSKMTRILQDSLGGNCRTTIVICCSPSSYNESETKSTLLFGQRAKTIKNTVCVNVELTAEQWKKKYEKEKE
modifications: fluorescent dye BG-549 (SNAP-surface 549) on the SNAP tag
notes: kinesin heavy chain KIF5B, human, residues 1-349, with D279R in the L12 loop; also called HK349 D279R; not shown: SNAP tag, C-terminal, kept
Regarding B2, the Kd in assay [1] was found to be 14000 nM; in assay [2] it was 12000 nM; in assay [3], 120 nM; in assay [4] it was 12 nM; in assay [5], 50 nM; in assay [6], 10 nM.

The record behind these values is publication PMC4735607, “Reversal of axonal growth defects in an extraocular fibrosis model by engineering the kinesin–microtubule interface” (Nature Communications, 2016).
